Source: patent US20180030546

Target: RAP1 (RAP1-GTPase) (UniProt P62834)
Sequence (P62834 1-181): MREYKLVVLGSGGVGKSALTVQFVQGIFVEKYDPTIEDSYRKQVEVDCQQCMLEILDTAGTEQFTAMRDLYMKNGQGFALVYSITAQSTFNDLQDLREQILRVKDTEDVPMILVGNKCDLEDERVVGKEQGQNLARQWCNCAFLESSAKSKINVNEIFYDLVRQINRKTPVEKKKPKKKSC

In the case of “Rap1GAP (RAP1 GTPase Activating Protein)”, the “RAP1 activity (active GTP-bound RAP1 pull-down, immunoblot with RAP1 antibody)” value is reported as “Enforced Rap1GAP expression in human GICs inhibited RAP1 activity”.
